Data on three molecules can be found in PMC8922275, “DNA-Dependent Binding of Nargenicin to DnaE1 Inhibits Replication in Mycobacterium tuberculosis” (ACS Infectious Diseases, 2022).

The target of one series is T1, DnaE1 (Mycobacterium tuberculosis, UniProt P9WNT7).
T1 construct: full-length
T1 sequence (P9WNT7 1-1184): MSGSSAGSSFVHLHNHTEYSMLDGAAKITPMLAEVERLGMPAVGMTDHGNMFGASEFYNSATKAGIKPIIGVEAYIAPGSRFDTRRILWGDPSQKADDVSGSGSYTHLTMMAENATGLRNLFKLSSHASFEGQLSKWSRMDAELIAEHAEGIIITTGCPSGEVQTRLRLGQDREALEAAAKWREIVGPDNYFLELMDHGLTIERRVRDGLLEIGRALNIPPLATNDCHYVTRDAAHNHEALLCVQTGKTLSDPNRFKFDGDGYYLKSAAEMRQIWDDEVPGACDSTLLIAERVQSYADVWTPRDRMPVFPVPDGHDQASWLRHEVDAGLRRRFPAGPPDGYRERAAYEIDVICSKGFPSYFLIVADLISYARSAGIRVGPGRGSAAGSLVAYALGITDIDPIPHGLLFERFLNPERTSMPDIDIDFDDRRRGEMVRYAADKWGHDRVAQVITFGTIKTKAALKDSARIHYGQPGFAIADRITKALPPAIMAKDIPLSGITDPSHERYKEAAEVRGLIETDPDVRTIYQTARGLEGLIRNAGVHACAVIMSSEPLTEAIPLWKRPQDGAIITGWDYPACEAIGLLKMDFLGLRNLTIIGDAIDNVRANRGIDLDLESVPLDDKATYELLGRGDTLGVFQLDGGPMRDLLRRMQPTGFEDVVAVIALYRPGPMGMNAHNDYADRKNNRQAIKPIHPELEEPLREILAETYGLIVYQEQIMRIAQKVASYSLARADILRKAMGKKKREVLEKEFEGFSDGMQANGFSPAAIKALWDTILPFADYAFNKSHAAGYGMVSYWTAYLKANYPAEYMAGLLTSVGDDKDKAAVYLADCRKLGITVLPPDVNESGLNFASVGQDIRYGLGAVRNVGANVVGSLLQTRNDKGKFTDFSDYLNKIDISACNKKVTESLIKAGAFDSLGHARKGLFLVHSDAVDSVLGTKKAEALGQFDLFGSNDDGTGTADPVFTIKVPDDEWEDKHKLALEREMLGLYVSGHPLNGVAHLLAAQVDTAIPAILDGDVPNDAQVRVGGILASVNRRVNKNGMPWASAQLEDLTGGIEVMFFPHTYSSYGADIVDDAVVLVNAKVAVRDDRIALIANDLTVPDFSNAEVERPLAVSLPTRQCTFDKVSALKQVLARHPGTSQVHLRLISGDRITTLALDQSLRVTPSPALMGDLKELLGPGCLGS
In words: ([…] Å) with DNA; […]. It is filed as biochemical.

The target of the next series is DnaE (Staphylococcus aureus, UniProt Q5HF71). Description: real-time fluorescence-quench DNA polymerase assay (text […]; Figure […] legend […]). The series is classed as biochemical.
The target in series [1] is T2, DNA polymerase III α (Pol IIIα) (Escherichia coli, UniProt P10443).
T2 construct: gene dnaE
In words: real-time fluorescence-quench DNA polymerase assay. The series is classed as biochemical.

For series [2], the target named is T3, DnaE1 (replicative DNA polymerase) (Mycobacterium tuberculosis, UniProt P9WNT7 1-1184).
T3 sequence: T1 sequence (P9WNT7 1-1184)
In words: cryo-EM structure (2.9 Å); 10 uM nargenicin, 5 mM MgCl2. As to conditions: protein: recombinant.

The target of series [3] is T3, DnaE1 (replicative DNA polymerase). Description: fluorescence anisotropy. As to conditions: protein: recombinant; label: 5'-Cy3 on primer (strand 1); 24 bp duplex, 5' overhang 30 nt on template. (In general: Fluorescence polarisation rises when a labelled molecule tumbles more slowly, as on binding a larger partner.)
Series [4] deals with Pol IIIα (replicative DNA polymerase) (Escherichia coli, UniProt P10443 1-1160). Description: fluorescence anisotropy; Anisotropy: 5 nM DNA, 25 mM HEPES pH 7.5, 50 mM potassium glutamate, 2 mM DTT, 0.5 mg/mL BSA, 24 °C. Cryo-EM: 20 mM PIPES pH 7.0, 50 mM potassium glutamate, 5 mM MgCl2, 2 mM DTT, 0.01% Tween-20. Particulars: protein: recombinant; label: 5'-Cy3 on primer (strand 1); 24 bp duplex, 5' overhang 30 nt on template.

The target in another series is DnaE S765L (Staphylococcus aureus, UniProt Q9F1K0 1-1065, S765L). The series is described as above. Particulars: protein: recombinant; label: 5'-Cy3 on primer (strand 1); 24 bp duplex, 5' overhang 30 nt on template.
For series [5], the target named is T4, DnaE (replicative DNA polymerase) (Staphylococcus aureus, UniProt Q9F1K0 1-1065).
T4 sequence: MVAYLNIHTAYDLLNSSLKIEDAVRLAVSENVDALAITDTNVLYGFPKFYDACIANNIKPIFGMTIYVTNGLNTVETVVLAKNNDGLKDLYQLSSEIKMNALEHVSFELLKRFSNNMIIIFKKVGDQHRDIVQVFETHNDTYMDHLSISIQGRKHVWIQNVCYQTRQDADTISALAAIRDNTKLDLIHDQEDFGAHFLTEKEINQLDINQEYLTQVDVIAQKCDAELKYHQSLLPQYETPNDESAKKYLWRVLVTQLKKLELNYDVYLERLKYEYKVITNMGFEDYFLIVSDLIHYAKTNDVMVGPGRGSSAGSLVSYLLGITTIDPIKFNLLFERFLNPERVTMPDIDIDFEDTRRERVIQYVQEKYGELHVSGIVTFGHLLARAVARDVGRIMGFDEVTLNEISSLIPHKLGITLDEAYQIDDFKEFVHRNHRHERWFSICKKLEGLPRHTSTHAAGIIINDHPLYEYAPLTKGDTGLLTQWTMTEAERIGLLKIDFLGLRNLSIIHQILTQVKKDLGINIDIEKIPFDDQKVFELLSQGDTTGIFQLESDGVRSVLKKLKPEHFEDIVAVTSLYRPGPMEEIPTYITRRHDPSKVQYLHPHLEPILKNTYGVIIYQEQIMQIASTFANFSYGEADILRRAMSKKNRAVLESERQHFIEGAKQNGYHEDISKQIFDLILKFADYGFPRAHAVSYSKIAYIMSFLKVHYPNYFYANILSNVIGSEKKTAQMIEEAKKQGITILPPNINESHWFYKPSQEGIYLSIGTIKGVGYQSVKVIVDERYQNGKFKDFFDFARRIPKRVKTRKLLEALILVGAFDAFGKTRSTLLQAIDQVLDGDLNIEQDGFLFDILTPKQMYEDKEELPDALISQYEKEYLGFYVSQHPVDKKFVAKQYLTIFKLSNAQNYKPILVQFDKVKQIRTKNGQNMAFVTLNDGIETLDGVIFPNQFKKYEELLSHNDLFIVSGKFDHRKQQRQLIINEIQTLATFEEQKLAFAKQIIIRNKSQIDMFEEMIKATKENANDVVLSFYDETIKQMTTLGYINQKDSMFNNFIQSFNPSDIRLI
Described as above. As to conditions: protein: recombinant; label: 5'-Cy3 on primer (strand 1); 24 bp duplex, 5' overhang 30 nt on template.

T2 sequence (P10443 whole entry): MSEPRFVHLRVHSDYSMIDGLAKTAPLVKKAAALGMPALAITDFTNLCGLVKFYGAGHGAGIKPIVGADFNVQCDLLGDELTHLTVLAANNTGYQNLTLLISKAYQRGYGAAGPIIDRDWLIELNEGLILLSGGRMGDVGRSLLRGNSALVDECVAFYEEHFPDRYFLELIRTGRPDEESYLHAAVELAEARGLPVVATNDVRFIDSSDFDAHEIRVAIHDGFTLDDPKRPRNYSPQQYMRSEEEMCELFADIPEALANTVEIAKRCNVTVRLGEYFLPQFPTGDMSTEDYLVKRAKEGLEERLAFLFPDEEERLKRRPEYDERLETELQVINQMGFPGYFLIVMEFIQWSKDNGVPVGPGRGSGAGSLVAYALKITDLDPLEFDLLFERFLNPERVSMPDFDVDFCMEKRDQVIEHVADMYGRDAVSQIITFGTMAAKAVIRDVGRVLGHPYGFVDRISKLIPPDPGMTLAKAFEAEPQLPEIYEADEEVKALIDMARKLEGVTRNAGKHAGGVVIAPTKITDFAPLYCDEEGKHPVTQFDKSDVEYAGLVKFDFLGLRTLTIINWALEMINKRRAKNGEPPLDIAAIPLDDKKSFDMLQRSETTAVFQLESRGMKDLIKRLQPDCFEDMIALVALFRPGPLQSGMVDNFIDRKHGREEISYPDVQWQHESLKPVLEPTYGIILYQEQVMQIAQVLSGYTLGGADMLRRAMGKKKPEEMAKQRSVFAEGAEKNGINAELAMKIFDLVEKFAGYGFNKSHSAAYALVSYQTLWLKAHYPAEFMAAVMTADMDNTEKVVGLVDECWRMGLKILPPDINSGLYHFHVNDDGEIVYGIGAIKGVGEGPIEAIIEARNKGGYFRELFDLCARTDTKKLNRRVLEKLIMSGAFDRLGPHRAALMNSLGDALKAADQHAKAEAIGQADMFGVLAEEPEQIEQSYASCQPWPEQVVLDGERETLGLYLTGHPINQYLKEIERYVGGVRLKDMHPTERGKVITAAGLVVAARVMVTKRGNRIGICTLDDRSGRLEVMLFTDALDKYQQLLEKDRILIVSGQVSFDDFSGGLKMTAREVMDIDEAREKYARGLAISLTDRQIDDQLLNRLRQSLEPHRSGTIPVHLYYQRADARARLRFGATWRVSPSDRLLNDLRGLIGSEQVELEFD

As to `COC1CC2C=CC3C4OC2(/C(C)=C/C(C)C(C(C)O)OC1=O)C3C(O)C(C)C4OC(=O)c1ccc[nH]1` (centres unmarked) [nargenicin], the 50% inhibitory concentration (IC50) (in general, the concentration at which inhibition is half-maximal) against DnaE1 stood at 125 nM; on DnaE it was 6 nM; in series [1], 13 µM.

B1: cryo-EM primer/template substrate (dsDNA)
DNA 1: GCACCTAAAGTTGGGAGTCCTTCGTCCTT
DNA 2: GATAGAGCAGAAGGACGAAGGACTCCCAACTTTAGGTG
modifications: phosphorothioate bond between the last two nt of the primer (T*T)
Turning to B1, in series [2], the binding result is “binds”.

B2: primed DNA substrate (anisotropy) (dsDNA)
DNA 1: GGTAACGCCAGGGTTTTCCCAGTC
DNA 2: CGCTCACTGGCCGTCGTTTTACAACGTCGTGACTGGGAAAACCCTGGCGTTACC
With B2, the equilibrium dissociation constant (Kd) – broadly, the concentration at which binding is half-saturated – was 250 nM in series [3], 12 µM in series [4], 85 nM with DnaE S765L and 6 nM in series [5].
